In patent US7977317B2, “Compositions and methods for modulating blood-brain barrier transport” (Raptor Pharmaceutical Inc., priority 2001, dated 2011):
Like-named read-outs stand apart in the source and are kept apart here.

Columns and labels:
BBCEC monolayers [1] = details: −saponin, cited from earlier work
BBCECs = test: Binding of [125I]-p97 to BBCECs with saponin treatment (Scatchard); set-up: species or system bovine; details: 200-fold molar excess, after saponin treatment (FIG. 12b)
Procedure: FIG. 12 illustrates the Binding of p97 to BBCE cells. FIG. 12a, p97 binding experiments were performed with BBCECs that were either pre-incubated in Ringer-Hepes solution or pre-treated with saponin. BBCECs were then incubated for 2 hrs at 4° C. with [^125I]-p97 (25 nM). At the end of the incubation, the filters were gently washed with cold PBS and then the radioactivity associated with the ECs was quantified; FIG. 12b, The binding of [^125I]-p97 was also performed with increasing concentrations of unlabelled p97 following saponin treatment. The results were expressed as the percentage of the [^125I]-p97 binding measured in the absence of unlabelled p97; FIG. 12c, The results were also transformed with a Scatchard plot and expressed as the ratio of bound p97/free p97 as a function of the bound p97 (n=5).
Transcytosis and binding experiments. […] At the end of the experiment, [^125I]-p97 was quantitated in 500 μl of the lower chamber of each well by TCA precipitation. We also measured p97 in 50 μl of the lower chamber of each well by SDS-PAGE according to the method of Laemmli (Laemmli, U.K. Nature; 227: 680-685 (1970)). Proteins were separated on 7.5% acrylamide gels, stained with Coomassie Blue, dried and analysed by densitometry. […] After 2 hrs at 4° C., ECs were gently washed, and the [^125I]-p97 attached to the ECs was quantified in a liquid scintillation counter. […]

Cubilin = test: RT-PCR after p97 treatment in U-87 cells: Cubilin; format: cell-based, human; details: 72 hours, RT-PCR (FIG. 35)
Procedure: FIG. 35. Effect of p97 and RAP treatments in U-87 cells (RT-PCR). Cells (2×10^5) were plated onto six-multiwell microplates and grown at 37° C. under 5% CO2 with optimal culture medium supplemented with serum for 4 days. Treatment was performed in serum free medium for 72 hours. RNA isolation and RT-PCR were performed as described in the Examples. The amplified PCR products were electrophoresed on a 2% agarose gel and visualized under ultraviolet light. (n=2 for p97), (n=1 for RAP)
FIG. 38. Effect of p97 and RAP treatments in U-87 cells on expression of cubulin (A), P97 (B) and Megalin (C). The amplified PCR products were electrophoresed on a 2% agarose gel and visualized under ultraviolet light. (n=1). Quantification was by densitometry of p97 and RAP treatments on the RNA levels of LRP1B, LRP, LDL-R, cubilin, endogenous p97 and megalin. Results are expressed as ratios of RNA levels between control and treated U-87 cells.
RNA extraction. Cells in six-wells plate or in 75 cm^2 plastic tissue culture flasks were grown at 37° C. under 5% CO2 with optimal culture medium to 80-90% confluence. Total cellular RNA was preserved in Trizol (Gibco BRL, Burlington, ON). The solution are frozen at −80° C. until extraction. The solution was defroze and mixed with 5:1 chloroform for 3 minutes at room temperature. The suspension was centrifugated at 12000 g at 4° C. […]

BBCEC monolayers [2] = test: Transcytosis of bovine [125I]-lactoferrin across BBCEC monolayers, inhibition by p97; format: cell-based; details: 200-fold molar excess of unlabelled p97, 37° C. (FIG. 16c)

Molecule	Kd (BBCEC monolayers [1]; Site 1, published value) [µM]	Kd (BBCEC monolayers [1]; Site 2, published value) [µM]	Inhibition of radiolabel ([125I]-p97) binding by unlabelled p97 (BBCECs)	Expression of the Cubilin receptor (Cubilin)	Inhibition of the transcytosis of bovine [125I]-lactoferrin (BBCEC monolayers [2])
lactoferrin: lactoferrin (Lf), LRP ligand used as competitor (protein, UniProt P02788 20-710, looked up) Lactotransferrin: GRRRSVQWCAVSQPEATKCFQWQRNMRKVRGPPVSCIKRDSPIQCIQAIAENRADAVTLDGGFIYEAGLAPYKLRPVAAEVYGTERQPRTHYYAVAVVKKGGSFQLNELQGLKSCHTGLRRTAGWNVPIGTLRPFLNWTGPPEPIEAAVARFFSASCVPGADKGQFPNLCRLCAGTGENKCAFSSQEPYFSYSGAFKCLRDGAGDVAFIRESTVFEDLSDEAERDEYELLCPDNTRKPVDKFKDCHLARVPSHAVVARSVNGKEDAIWNLLRQAQEKFGKDKSPKFQLFGSPSGQKDLLFKDSAIGFSRVPPRIDSGLYLGSGYFTAIQNLRKSEEEVAARRARVVWCAVGEQELRKCNQWSGLSEGSVTCSSASTTEDCIALVLKGEADAMSLDGGYVYTAGKCGLVPVLAENYKSQQSSDPDPNCVDRPVEGYLAVAVVRRSDTSLTWNSVKGKKSCHTAVDRTAGWNIPMGLLFNQTGSCKFDEYFSQSCAPGSDPRSNLCALCIGDEQGENKCVPNSNERYYGYTGAFRCLAENAGDVAFVKDVTVLQNTDGNNNEAWAKDLKLADFALLCLDGKRKPVTEARSCHLAMAPNHAVVSRMDKVERLKQVLLHQQAKFGRNGSDCPDKFCLFQSETKNLLFNDNTECLARLHGKTTYEKYLGPQYVAGITNLKKCSTSPLLEACEFLRK	0.035	1.9			
p97: recombinant human melanotransferrin (p97), provided by Synapse Technologies (protein, UniProt P08582 20-709, looked up) Melanotransferrin: GMEVRWCATSDPEQHKCGNMSEAFREAGIQPSLLCVRGTSADHCVQLIAAQEADAITLDGGAIYEAGKEHGLKPVVGEVYDQEVGTSYYAVAVVRRSSHVTIDTLKGVKSCHTGINRTVGWNVPVGYLVESGRLSVMGCDVLKAVSDYFGGSCVPGAGETSYSESLCRLCRGDSSGEGVCDKSPLERYYDYSGAFRCLAEGAGDVAFVKHSTVLENTDGKTLPSWGQALLSQDFELLCRDGSRADVTEWRQCHLARVPAHAVVVRADTDGGLIFRLLNEGQRLFSHEGSSFQMFSSEAYGQKDLLFKDSTSELVPIATQTYEAWLGHEYLHAMKGLLCDPNRLPPYLRWCVLSTPEIQKCGDMAVAFRRQRLKPEIQCVSAKSPQHCMERIQAEQVDAVTLSGEDIYTAGKTYGLVPAAGEHYAPEDSSNSYYVVAVVRRDSSHAFTLDELRGKRSCHAGFGSPAGWDVPVGALIQRGFIRPKDCDVLTAVSEFFNASCVPVNNPKNYPSSLCALCVGDEQGRNKCVGNSQERYYGYRGAFRCLVENAGDVAFVRHTTVFDNTNGHNSEPWAAELRSEDYELLCPNGARAEVSQFAACNLAQIPPHAVMVRPDTNIFTVYGLLDKAQDLFGDDHNKNGFKMFDSSNYHGQDLLFKDATVRAVPVGEKTTYRGWLGLDYVAALEGMSSQQC			approximately 50%	induces the expression	more than 75%
